{"source": "paper PMC4253670", "about": "(Biochemical and biophysical research communications, 2014)", "key": {"MPO [1]": {"molecular_target": "T1, MPO (Homo sapiens, UniProt P05164)", "T1 sequence (P05164 279-745 limits assumed)": "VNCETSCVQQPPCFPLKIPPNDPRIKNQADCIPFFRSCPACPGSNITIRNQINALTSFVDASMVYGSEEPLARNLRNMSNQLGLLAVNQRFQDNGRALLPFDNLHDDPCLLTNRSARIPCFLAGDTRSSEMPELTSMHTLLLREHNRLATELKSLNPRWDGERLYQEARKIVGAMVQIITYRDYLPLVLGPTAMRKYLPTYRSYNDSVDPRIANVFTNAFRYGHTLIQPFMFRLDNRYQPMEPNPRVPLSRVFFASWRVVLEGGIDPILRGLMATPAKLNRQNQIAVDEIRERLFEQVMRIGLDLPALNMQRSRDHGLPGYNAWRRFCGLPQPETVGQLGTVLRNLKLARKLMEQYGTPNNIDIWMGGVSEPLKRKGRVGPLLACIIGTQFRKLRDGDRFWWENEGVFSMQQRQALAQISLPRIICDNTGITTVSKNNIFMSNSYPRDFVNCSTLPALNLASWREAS", "T1 sequence (P05164 165-273 limits assumed)": "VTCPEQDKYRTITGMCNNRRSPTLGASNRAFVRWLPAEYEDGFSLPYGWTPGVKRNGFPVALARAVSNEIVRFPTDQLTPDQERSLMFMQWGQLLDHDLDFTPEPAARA", "experiment": "Peptide screening, direct binding ELISA of 87 overlapping Cp peptides", "conditions": "combined data of 87 ELISA plates; 24-mers not HPLC-purified; figure 2A"}, "MPO [2]": {"molecular_target": "T1, MPO", "experiment": "Direct binding ELISA of HPLC-purified peptides", "conditions": "24-mer P18, 21-mers of P18, P48, P76, negative controls P28 and P61, mean ± SEM, n = 4 wells, p<0.05, figure 3B"}, "MPO [3]": {"molecular_target": "T1, MPO", "experiment": "Surface plasmon resonance, immobilized MPO", "conditions": "read-out: binding affinity (Kd); MPO immobilized on CM5 chip via -NH2; Cp 1 to 200 nM; Biacore3000, 30 μl/min; Biaevaluation software"}, "Cp": {"test_system": "Cp", "conditions": "oxidation of ferrous ions and removal of peroxides; ref [14]; cited from earlier work"}, "MPO [4]": {"test_system": "MPO", "conditions": "ref [14]; cited from earlier work"}}, "note": "Entries after “also recorded” stand apart in the source; their conditions may differ. Where no end group is shown, it is not given here.", "data": [{"molecule": "VVDENFSWYLEDNIKTYCSEPEKV [P18]", "values": [{"measurement": "peptide-MPO to Cp-MPO absorbance ratio", "setting": "MPO [1]", "result": "two major peaks"}, {"measurement": "binding of MPO to HPLC-purified surface-adsorbed peptide", "setting": "MPO [2]", "result": "bound more MPO than its shorter, 21-mer version; also recorded: bound more MPO than P76"}]}, {"molecule": "Cp: Purified human Cp (Vital Products), copper-containing ferroxidase (protein) KEKHYYIGIIETTWDYASDHGEKKLISVDTEHSNIYLQNGPDRIGRLYKKALYLQYTDETFRTTIEKPVWLGFLGPIIKAETGDKVYVHLKNLASRPYTFHSHGITYYKEHEGAIYPDNTTDFQRADDKVYPGEQYTYMLLATEEQSPGEGDGNCVTRIYHSHIDAPKDIASGLIGPLIICKKDSLDKEKEKHIDREFVVMFSVVDENFSWYLEDNIKTYCSEPEKVDKDNEDFQESNRMYSVNGYTFGSLPGLSMCAEDRVKWYLFGMGNEVDVHAAFFHGQALTNKNYRIDTINLFPATLFDAYMVAQNPGEWMLSCQNLNHLKAGLQAFFQVQECNKSSSKDNIRGKHVRHYYIAAEEIIWNYAPSGIDIFTKENLTAPGSDSAVFFEQGTTRIGGSYKKLVYREYTDASFTNRKERGPEEEHLGILGPVIWAEVGDTIRVTFHNKGAYPLSIEPIGVRFNKNNEGTYYSPNYNPQSRSVPPSASHVAPTETFTYEWTVPKEVGPTNADPVCLAKMYYSAVEPTKDIFTGLIGPMKICKKGSLHANGRQKDVDKEFYLFPTVFDENESLLLEDNIRMFTTAPDQVDKEDEDFQESNKMHSMNGFMYGNQPGLTMCKGDSVVWYLFSAGNEADVHGIYFSGNTYLWRGERRDTANLFPQTSLTLHMWPDTEGTFNVECLTTDHYTGGMKQKYTVNQCRRQSEDSTFYLGERTYYIAAVEVEWDYSPQREWEKELHHLQEQNVSNAFLDKGEFYIGSKYKKVVYRQYTDSTFRVPVERKAEEEHLGILGPQLHADVGDKVKIIFKNMATRPYSIHAHGVQTESSTVTPTLPGETLTYVWKIPERSGAGTEDSACIPWAYYSTVDQVKDLYSGLIGPLIVCRRPYLKVFNPRRKLEFALLFLVFDENESWYLDDNIKTYSDHPEKVNKDDEEFIESNKMHAINGRMFGNLQGLTMHVGDEVNWYLMGMGNEIDLHTVHFHGHSFQYKHRGVYSSDVFDIFPGTYQTLEMFPRTPGIWLLHCHVTDHIHAGMETTYTVLQNEDTKSG", "values": [{"measurement": "Kd", "setting": "MPO [3]", "result": 30, "unit": "nM"}, {"measurement": "effect of MPO binding on antioxidant activities of Cp", "setting": "Cp", "result": "does not inhibit important antioxidant activities of Cp"}, {"measurement": "binding to and inhibition of myeloperoxidase", "setting": "MPO [4]", "result": "bind and inhibit myeloperoxidase (MPO)"}]}]}
